Among the data in patent publication US7179464 are activity relative to KM1259 (fold of KM1259) and reactivity relative to KM1399 (fold of KM1399) values, retold here.

Experiment [1] has as its target soluble human IL-5R α (shIL-5R α) (human) (UniProt Q01344). Description: discussion of the ELISA results; assay not given. A general note: In an ELISA, binding on a coated surface is turned into a signal by an enzyme label.
The target is the same in experiment [2]. The experiment can be described thus: ELISA method 2: purified antibody on plate-coated shIL-5R α, anti-human IgG detection.

soluble human IL-5R α (shIL-5R α) (human), sequence (Q01344 other isoform, or with tags, fused parts or gaps limits assumed, form in doubt): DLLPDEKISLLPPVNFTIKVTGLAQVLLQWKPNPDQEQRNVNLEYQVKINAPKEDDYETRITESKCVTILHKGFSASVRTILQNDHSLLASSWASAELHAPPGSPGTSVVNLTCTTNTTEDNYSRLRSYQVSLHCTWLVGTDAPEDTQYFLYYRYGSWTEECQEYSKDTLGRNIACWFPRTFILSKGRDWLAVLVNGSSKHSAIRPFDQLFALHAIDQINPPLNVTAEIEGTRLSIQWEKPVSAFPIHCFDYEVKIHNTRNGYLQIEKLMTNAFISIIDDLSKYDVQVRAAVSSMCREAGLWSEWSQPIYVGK

B1: anti-human IL-5R α chain human CDR-grafted antibody KM8397 (antibody, human IgG1, V domains shown)
VH: EVQLVQSGAEVKKPGASVKVSCKASGYTFTSYVIHWVRQAPGQGLEWMGYINPYNDGTKYNERFKGRVTITADTSTSTAYMELSSLRSEDTAVYYCAREGIRYYGLLGDYWGQGTLVTVSS
VL: DIQMTQSPSSLSASVGDRVTITCGTSEDIINYLNWYQQKPGKAPKLLIYHTSRLQSGVPSRFSGSGSGTDFTLTISSLQPEDFATYYCQQGYTLPYTFGQGTKVEIK
Turning to B1, in experiment [1], the activity relative to KM1259 (fold of KM1259) came to 0.5. Further, the reactivity relative to KM1399 (fold of KM1399) in experiment [2] amounted to 0.5.
